# Results taken from the nanobody polyreactivity screen of Harvey et al. (2022).
# Assay: yeast display, Sf9 membrane polyspecificity reagent, FACS + sequencing; frameworks hold sequencing errors
# Procedure, shortened: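 Synthetic nanobody libraries on Saccharomyces cerevisiae BJ5465 were galactose-induced for 36–48 hours, stained 1 hour at 4 °C with 10% biotinylated, detergent-solubilized Sf9 membrane reagent and enriched on streptavidin microbeads. FACS then separated cells into low and high (top ~1%) gates by anti-HA (expression) and streptavidin (reagent binding) fluorescence. Genes were colony-PCR amplified, MiSeq 2 × 250 sequenced and CDR-length filtered. A clone's polyreactivity label is that of its gate of origin.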
sequence,measurement,value
QVQLVESGGGLVQAGGSLRVSCAASGFIIEVNSMAWYRQAPGKERELVARIDWSGGSTYYADSVKGRFTISRDNAKNTVFLQMNSLIPEDTAVYYCAVVASRSHTETPEYDYWGQGTQVTVSS,polyreactivity (PSR sort gate),low polyreactivity
QVQLVESGGGLVQAGGSLRVSCAASGFTFGPNAMGWYSQAPGKERELVAAISQSGGSTYADSEKGRFTISRDNAKNTDYLHMNSLKPEDTAVYYCAAEFPDYYWWYEYWGQGTQVTVSS,polyreactivity (PSR sort gate),high polyreactivity
QVQLVESGGGLVQAGGSLRVSCAASGFTFYLYAMGWYRQAPGKERELVAAITWSGGRTYYADSVKGRFTISRDNAKNTVYLQMNSLKPEDTAVYNCAAVVRKQLSAPSDYWGQGTQVTVSS,polyreactivity (PSR sort gate),high polyreactivity
QVQLVESGGGLVQAGGSLRVSCAASGFTFYRYAMGWYRQAPGKERELVAAITWSGGSTYYADSVKGRFTISRDNAKNTVYLQMNSLKPEDTAVYYCAADIYDGGFDYWGQGTQVTVSS,polyreactivity (PSR sort gate),low polyreactivity
QVQLVESGGGLVQAGGSLRVSCAASGIIFRIYAMGWYRQAPGKEREFVAAISGSGDSTYYADSVKGRLTISRDNAKTTVYLQMNSLKPEDTAVYYCAADWTLVYYHEDYWGQGTQVTVSS,polyreactivity (PSR sort gate),low polyreactivity
QVQLVESGGGLVQAGGSLRVSCAASGRIFFPYDMGWYRQAPGKERELVAAITNSGGRTYYADSVKGRFTISRDKAKNTVYLQMNSLKPEDTAVYYCNADAYEFRWVKHYDYWGQGTQVTVSS,polyreactivity (PSR sort gate),low polyreactivity
QVQLVESGGGLVQAGGSLRVSCAASGRIFRWYAMGWYRQAPGKERELVAAITSRGTSTYYADSVKGRFTISRDNAKNTDYLQMNSLKPEDTAVYYCNAVPSRGYDYWGQGTQVTVSS,polyreactivity (PSR sort gate),high polyreactivity
QVQLVESGGGLVQAGGSLRVSCAASGRIFVQYDMGWYRQAPGKERELVAAINDSGDITYYADSVKGRFTISRDNAKNTVYLQMTSLKPEDTAVYSCAASAAYYGFYKSVTYDYWGQGTQVSVSS,polyreactivity (PSR sort gate),low polyreactivity
QVQLVESGGGLVQAGGSLRVSCAASGRIFWYNDMGWYRQAPGKERELVAAITARGTRTHYADSVKGRFTISRDNAKKTVYLQMNSLKPEDTAVYYCAKGWYTVVWDAPVFSERGEYWGQGTQVTVSS,polyreactivity (PSR sort gate),low polyreactivity
QVQLVESGGGLVQAGGSLRVSCAASGRTFGYNAMGWYRQAPGKERELVATISWGGGSTYYADSVKVRFTISRDNAKNTVYLQMNSLKPEDTAVYYCAATYWTYPYHYQYKYDYWGQGTQVTVSS,polyreactivity (PSR sort gate),high polyreactivity
QVQLVESGGGLVQAGGSLRVSCAASGRTFRSYAMGWYRQAPGKERELVAAIRRGGSTNYADSVKGRFPISRDNAKYTVYLQMNSLKPEDTAVYYCAARYTRWRYNYKDYDYWGQGTQVTVSS,polyreactivity (PSR sort gate),high polyreactivity
QVQLVESGGGLVQAGGSLRVSCAASGRTFRYYAMGWYRQAPGKERELVASISDGGSTNYADSVKGRFTISRDNAKNTVYLQMNSQKPEDTAVYYCNAKAYVWYLYDEFGYWGQGTQVTVSS,polyreactivity (PSR sort gate),low polyreactivity
QVQLVESGGGLVQAGGSLRVSCAASGSIFGYYAMGWSRQAPGKERELVAGINWSGGSTYADSVKGRFTISRDNAKNTVYLKMNSLKPEDTAVYYCYLRYRKYSSAKYDYWGQGTQVTVSS,polyreactivity (PSR sort gate),high polyreactivity
QVQLVESGGGLVQAGGSLRVSCAASGSIFQYYGMGWYRQAPGKERELVAAISRGGSTNYADSVKGRFTISRDYAKNTGYLQMNSLKPEDTAVYYCNARTYRKAYSGYNYWGQGTQVTVSS,polyreactivity (PSR sort gate),high polyreactivity
QVQLVESGGGLVQAGGSLRVSCAASGSIFRWYTMGCYRQAPGKEREFVADISWSGGRTYYADSVKGRFTISRDNASYSVYLQMNCLKPEDTAVYYCNAEHNTRYDYWGQGTQVSVSS,polyreactivity (PSR sort gate),low polyreactivity
QVQLVESGGGLVQAGGSLRVSCAASGSIFSIYAMGWYRQAPGKERELVASITRSSGRTYYADSVKGRFTISRDNAKKTVYLQMNSLKPEDTAVYYCAKDYIPLALDADDYWGQGTQVSVSS,polyreactivity (PSR sort gate),low polyreactivity
QVQLVESGGGLVQAGGSLRVSCAASGSTFDPNAMGWYRQATGKERELVADIDSGGSTYYADSVKGRFTISRDNAKNTVYLQMNSMKPEDTAVYYCATKQPTWVPRVIISYTKFDYWGQGTQVTVSS,polyreactivity (PSR sort gate),low polyreactivity
QVQLVESGGGLVQAGGSLRVSCAASGSTFDVNAMGWYRQAPGKERELVAVITSGGSTNYADSVKGRFTISRDNAKNSVYLQMNSLKPEATAVYYCAKDSRTLYDYWGQGTQVTVSS,polyreactivity (PSR sort gate),low polyreactivity
QVQLVESGGGLVQAGGSLRVSCAASGSTFILNAMGWYRQAPGKERELVATISSSDTSTYYADSVKGRFTISRDHAKNTVYLQMNSMKPEDTAVYYCNADYYTTAYLQRVYHYGVEYDYWGQVTQVTVSS,polyreactivity (PSR sort gate),low polyreactivity
QVQLVESGGGLVQAGGSLRVSCAASGSTFYYYAMGGYSQAPGKERELVAAISSRGGSTYYADSVKGRFRISRDNAKNTVYLQMNSLKPEDTAVYYCAASSQRISPDHDYWGQGTQVTVSS,polyreactivity (PSR sort gate),high polyreactivity
QVQLVESGGGLVQAGGSLRYSCAASGLIFQHNALGWYRPAPGKERELVAAISGSGGSTYYADSVKGRFTISRDNAKNTVYLQMNSLKPEDTAVYYCATDDRYYRRYYWGQGTQVTVAS,polyreactivity (PSR sort gate),high polyreactivity
QVQLVESGGGLVQAGGSLSFSCAAPGSIFPRYAMGWYRQAPGKERELVAAISRSGGSTYYADSVKGRFTISRDNAKNSVYLQMNSLKPEDTAVYYCATDKVSHRRYDYWGQGTQVTVSS,polyreactivity (PSR sort gate),high polyreactivity
QVQLVESGGGLVQAGGSLSFSCAASGFIFRAYTMGWYRQAPGKERELVAAITSSGGRTYYADSVKGRFTISRDNAKNSVYLQMNSLKPEDTAVYYCATVYAKWKQFDYWGQGTQVTVSS,polyreactivity (PSR sort gate),high polyreactivity
QVQLVESGGGLVQAGGSLSISCAASDLPGLCYGWYRQAPGKERELVAAMTSNGGSTYYADSVKGRFTISRDNAKITVYLQMNSLKPEDTAVYYCATEHHTVQVYDYWGQGTQVTVSS,polyreactivity (PSR sort gate),low polyreactivity
QVQLVESGGGLVQAGGSLSLICAASGGTFYKYAMGWYRQAPGKERELDAAISRSGGSTYYADSVKGRFTISRDNAKNTVYLQINRLKPEDTAVYYCKAYGSYWDFDYWGQRTQVTVSS,polyreactivity (PSR sort gate),high polyreactivity
QVQLVESGGGLVQAGGSLSLICAASGSIFTRNAMGWYRQAPGKERELVAAISRRGVSTYYADSVKGRFTNSRDNAKNTVYLQMNSLKPEDTAVYYCNKLSSYVVARRTTEYDYWGQGTQVTVSS,polyreactivity (PSR sort gate),high polyreactivity
QVQLVESGGGLVQAGGSLSLICAASGYTLKYYAMGWYRQAPGKERELVAVISRGGSTYYADSVKGRFTISRDNAKNTVYLQMNSLNPEDTAVYYCAKRPTQGYYPYGYWGQGTQVTVSS,polyreactivity (PSR sort gate),high polyreactivity
QVQLVESGGGLVQAGGSLSLICAAYGTTFEYYAMRWYRQAPGKERELVATISIDGRTNYADSVKGRFTISRDNAKNTVYLQMISLKPEDTAVYYCAARPYWRHRYDYWGQGTQVTVSS,polyreactivity (PSR sort gate),low polyreactivity
QVQLVESGGGLVQAGGSLSLNCAASGFTFLQYPMGWYRQAPGKERELVATISSGGSTYYADSVKGRFTISPDNAKNTVYLQMNSLKPEDTAVYYCADTGYSSCTYYTHEYWGQGTQVTVSS,polyreactivity (PSR sort gate),low polyreactivity
QVQLVESGGGLVQAGGSLSLRCADSGRTLWAYAMGGYREAAGNDRELVAAISASGGSTYYADSVKGRFTISRDIAKNTVYLQMNSLKPADTAVYYCRLVSKGRLYDYCGQGTQVTVSS,polyreactivity (PSR sort gate),high polyreactivity
QVQLVESGGGLVQAGGSLSLSCAASGFIFRGYAMGWNRQAPGKEREFVAAISRRGGSTYYADSVKGRFTISRDNAKNTVYLQMNSLKPEDTAVYYCAARYSPVWHKYYYWGQGTEVTVSS,polyreactivity (PSR sort gate),high polyreactivity
QVQLVESGGGLVQAGGSLSLSCAASGFTFGSNDMGWYRQAPGKERELVAAIDGSGDTYYADSVKGRFTISRDNAKNTVYLQMNSLKPEDTAVYYCARDDNPIYSGVTYDYWGQGTQVTVSS,polyreactivity (PSR sort gate),low polyreactivity
